Here are results for one molecule from patent publication US20250277790A1 (Johns Hopkins, published 2025).

The target in this experiment is human EGFR tagged with the fluorescent protein mTurquoise at the C-terminus (wild-type), in plasma … (human, UniProt P00533 25-1210). In words: cell-based or functional assay.

B1: EGF ligand from mouse labeled with rhodamine at its N-terminus (rho-mEGF, Thermofisher, E3481) (ligand, UniProt P01132 977-1029, looked up)
chain: NSYPGCPSSYDGYCLNGGVCMHIESLDSYTCNCVIGYSGDRCQTRDLRWWELR
modifications: not fully specified; rhodamine (tetramethylrhodamine) at the N-terminus
Consider B1, for which the “EC50 of Y1068 phosphorylation per EGFR molecule” value came to 5.5 nM and the “EC50 of Y1173 phosphorylation per EGFR molecule” value turned out to be 6.8 nM.
